This test deals with M. tuberculosis Lsr2 R86A mutant protein (M. tuberculosis). The experiment in a line: cross-linking.

Where “and” joins values, the source holds several entries; their conditions need not be identical. Identical values can stand only once.

For “M. tuberculosis Lsr2 R86A mutant protein (natural protein)”, the stoichiometry N is 2 and 4.

For the origin of these results see article PMC2367712.
